In paper PMC11338361:

Target: HA-DGAT2 (hemagglutinin-tagged tung tree DGAT2) (Vernicia fordii (tung tree)) (UniProt Q0QJH9)
Test: SDS-PAGE and immunoblotting of microsomal membranes

stoichiometry N: 2
Substance: HA-DGAT2 (hemagglutinin-tagged tung tree DGAT2) (from UniProt Q0QJH9 2-322) (enzyme)
